The RNAGym collection of RNA variant scans (doi:10.7554/elife.90254)

B1: LINE1-full (parent)
chain: UACGUAGGUGGUUUUCCCCUGAUAGUGCUAAGGGGGCCUGGAAGUUUGGACUGGGCAGAGCUCAACACAGCGUGGCAAAGUGGCUGUGGCUAGACUGCCUCUCUGGAUUCCUCGUCACUCAGCAGGGCAUCUCUGAGAGAAAUGCC

Variants of: B1
Test: self-cleavage, relative activity (ratio to wild type); higher = more cleavage; in vitro, sequencing; the parent is a self-cleaving ribozyme

Going from G27A U134C to G27A U134A, the self-cleavage falls from 1.58 to 0.87.

First: U29C A92G
Second: U26A G33A
The self-cleavage of the first is lower: 0.21 for the first, 0.67 for the second.

First: U26A G33U
Second: G27A A142G
The self-cleavage of the first is lower: 0.62 for the first, 1.15 for the second.

Compared with G27A G144A, U26A C120A is higher in self-cleavage: 1.08 for the first, 1.12 for the second.

Going from C28U C84U to U29A C51A, the self-cleavage rises from 0.25 to 1.65.

Going from U26A U119A to U26A U119G, the self-cleavage rises from 0.78 to 1.45.

Going from G27A A69C to U26A U73G, the self-cleavage rises from 0.11 to 1.18.

First: U26A U73C
Second: U26A U73A
The self-cleavage of the first is lower: 1.15 for the first, 1.24 for the second.

Going from U26G U130A to U26C C95A, the self-cleavage falls from 0.79 to 0.1.

Going from U26A A117G to U29A U81A, the self-cleavage rises from 1.11 to 1.96.

First: G27C A117G
Second: U26G
The self-cleavage of the first is lower: 0.95 for the first, 0.99 for the second.

Compared with U26A, U26C is higher in self-cleavage: 0.94 for the first, 1.24 for the second.

First: U29A U45G
Second: U29A U45C
The self-cleavage of the first is lower: 0.38 for the first, 0.96 for the second.

First: U26C A142G
Second: U26C G54A
The self-cleavage of the first is higher: 1.43 for the first, 0.6 for the second.

Going from C28G U134C to C28U U96A, the self-cleavage falls from 0.82 to 0.06.

Going from U29A A121G to C28A G32C, the self-cleavage falls from 1.31 to 0.96.

First: U26C A78G
Second: U29C A59U
The self-cleavage of the first is lower: 1.1 for the first, 1.13 for the second.

Going from U29C A59G to C28U U119C, the self-cleavage rises from 0.16 to 1.12.

Going from U29C A117G to C28G U143A, the self-cleavage rises from 0.44 to 1.45.

Compared with C28A C131G, U26C A43C is higher in self-cleavage: 0.33 for the first, 1.63 for the second.

Compared with U26C A43G, U29C A42G is higher in self-cleavage: 1.43 for the first, 1.66 for the second.

Compared with U26C A31C, U26C A31G is lower in self-cleavage: 1.23 for the first, 0.91 for the second.

Going from U26A A64G to U26A A64U, the self-cleavage rises from 0.2 to 0.23.

Compared with U29A A124C, U26C U52C is lower in self-cleavage: 1.52 for the first, 0.98 for the second.

Compared with U26A A30G, U26A G105U is lower in self-cleavage: 0.84 for the first, 0.57 for the second.

Compared with U29A G44A, U26C U104A is higher in self-cleavage: 0.61 for the first, 1.13 for the second.

Compared with U26C U104C, U29C A31G is higher in self-cleavage: 0.84 for the first, 1.14 for the second.

Compared with U29C A138G, U26C C98U is lower in self-cleavage: 1.72 for the first, 0.11 for the second.

First: U29C A94G
Second: G27A U130C
The self-cleavage of the first is lower: 0.54 for the first, 1.34 for the second.

Going from U26A A59G to U26A G114A, the self-cleavage rises from 0.06 to 0.67.

First: U29C A69U
Second: U26C G127A
The self-cleavage of the first is lower: 0.11 for the first, 1.37 for the second.

Going from U26C A59U to U29A U73C, the self-cleavage rises from 0.84 to 1.63.

Compared with U26C U109C, U26C G114U is lower in self-cleavage: 1.74 for the first, 1.49 for the second.

First: U26A A67G
Second: U26A G126C
The self-cleavage of the first is lower: 0.4 for the first, 1.42 for the second.

C28U G89U and U26C C61A are the same in self-cleavage: 0.06 for the first, 0.06 for the second.

First: U26C C61U
Second: U29C C111A
The self-cleavage of the first is lower: 0.04 for the first, 1.24 for the second.

Going from U26A G40U to U29C A77C, the self-cleavage rises from 0.37 to 0.85.

Compared with U29C A77U, U29A C66U is lower in self-cleavage: 1.63 for the first, 0.25 for the second.

Going from G27A A67G to C28U A64U, the self-cleavage falls from 0.45 to 0.33.

First: C28U A64G
Second: U29A U119C
The self-cleavage of the first is lower: 0.16 for the first, 0.97 for the second.

Compared with U29A U119G, U26G A142G is lower in self-cleavage: 1.31 for the first, 1.28 for the second.

Compared with U26C U143C, U26C U143A is higher in self-cleavage: 1.07 for the first, 1.44 for the second.

First: U29A C110U
Second: U26C U87A
The self-cleavage of the first is higher: 1.07 for the first, 0.08 for the second.

Compared with C28A G54A, U29A A64G is lower in self-cleavage: 0.57 for the first, 0.48 for the second.

First: U26A U134C
Second: U26C A57G
The self-cleavage of the first is lower: 0.9 for the first, 1.14 for the second.

Compared with U26C A57U, C28U U102C is higher in self-cleavage: 0.14 for the first, 0.15 for the second.

First: C28U U143G
Second: U26A C38A
The self-cleavage of the first is higher: 1.02 for the first, 0.73 for the second.

Compared with U26A C90A, U26A U45G is higher in self-cleavage: 0.04 for the first, 0.6 for the second.

First: U26A U87A
Second: U26C A117G
The self-cleavage of the first is lower: 0.01 for the first, 1.51 for the second.

First: U26C A117U
Second: U26C C37U
The self-cleavage of the first is higher: 2.25 for the first, 0.77 for the second.

Going from U26A U143C to U26A U143A, the self-cleavage rises from 0.86 to 2.23.

First: G27A A59G
Second: U29A A69U
The self-cleavage of the first is higher: 0.13 for the first, 0.07 for the second.

Going from U29A A69G to U26C A69C, the self-cleavage falls from 0.42 to 0.08.

First: U26C A77U
Second: G25U U45G
The self-cleavage of the first is higher: 1.55 for the first, 0.93 for the second.

First: U29C C123U
Second: G27A U73A
The self-cleavage of the first is higher: 1.21 for the first, 0.87 for the second.

Going from G27A U73C to G27A U102C, the self-cleavage falls from 0.93 to 0.84.

Compared with C28A A79U, C28U U39C is lower in self-cleavage: 1.47 for the first, 0.97 for the second.

First: U26C G75U
Second: U26C C76U
The self-cleavage of the first is lower: 0.57 for the first, 1.87 for the second.

Compared with U29A C101U, U26A G34U is lower in self-cleavage: 1.71 for the first, 0.83 for the second.

Compared with U26C G135A, G27A A138G is lower in self-cleavage: 1.65 for the first, 1.02 for the second.

Going from U26G A79G to U26C U134C, the self-cleavage rises from 0.53 to 0.83.

First: U26A G144A
Second: U26A C133U
The self-cleavage of the first is higher: 1.03 for the first, 1.01 for the second.

Compared with U26A A57U, U26C U119C is higher in self-cleavage: 0.04 for the first, 1.77 for the second.

First: G27A U85C
Second: U26A A31G
The self-cleavage of the first is lower: 0.13 for the first, 0.81 for the second.

Compared with U26A A31C, U26A A77G is higher in self-cleavage: 1.04 for the first, 1.84 for the second.

Compared with U26A U47A, U26A U47C is higher in self-cleavage: 0.59 for the first, 1 for the second.

Going from U26A U47G to U26A A50C, the self-cleavage falls from 1.6 to 0.78.

Going from U29C C116U to G27A, the self-cleavage rises from 0.85 to 1.07.

Going from G27C to G27U, the self-cleavage falls from 1.11 to 0.97.

Compared with U26A U104A, U26C G72C is lower in self-cleavage: 0.98 for the first, 0 for the second.

First: C28U U45G
Second: G27A A65G
The self-cleavage of the first is higher: 1.09 for the first, 0.05 for the second.

Going from U26G U47C to G27A U46C, the self-cleavage falls from 1.16 to 0.7.

Compared with U26G A124G, G27A C111A is higher in self-cleavage: 0.69 for the first, 1.16 for the second.

First: U26C A136U
Second: G25U U46C
The self-cleavage of the first is higher: 1.82 for the first, 1.74 for the second.

Going from U29A G72A to U26A A142G, the self-cleavage rises from 1.13 to 1.2.

Going from U26A U96G to U26C G34A, the self-cleavage rises from 0.03 to 1.03.

Compared with U26C A30G, U26G A138G is higher in self-cleavage: 1.05 for the first, 1.21 for the second.

First: U26A C95U
Second: G27U A67G
The self-cleavage of the first is lower: 0.17 for the first, 0.28 for the second.

Compared with U26A G80U, U26A U39C is lower in self-cleavage: 1.21 for the first, 0.73 for the second.

Compared with U29A U62C, U29A U132A is higher in self-cleavage: 0 for the first, 1.09 for the second.

First: U29A U132C
Second: U26C U73A
The self-cleavage of the first is lower: 0.59 for the first, 1.48 for the second.

Going from U26C U73C to C28U A121G, the self-cleavage falls from 1.45 to 0.66.

First: U29C C84G
Second: C28A C116U
The self-cleavage of the first is lower: 0.14 for the first, 1.34 for the second.

Work on U29A A77U yielded a self-cleavage of 1.79.
